In patent US20020165156A1 (Biogen, published 2002):

Target: T1, soluble flag-hBAFF (amino acids L83-L285) (human, UniProt Q9Y275 83-285)
T1 construct: range 83-285; also called FLAG-tagged human BAFF; not shown: FLAG tag
Experiment: plate assay, 0.5 ug/ml FLAG-hBAFF on pJST535-transfected 293EBNA cells, anti-FLAG M2 and alkaline phosphatase / fast red
Description: Full-length human BAFF-R was generated from BJAB polyA+RNA using the SuperscriptII preamplification kit (Life Technologies) to generate the cDNA template and amplified by Pfu1 using primers complementary to the 5′ and 3′ coding sequences of BAFF-R. The PCR product was cloned into CH269, a derivative of pCEP4 (Invitrogen). The resultant clone was termed pJST535. Human embryonic kidney cells containing the EBNA-1 gene (293EBNA) were seeded into 6 well plates coated with fibronectin and transfected by lipofectamine (Life Technologies) with either pJST535 at various dilutions or CH269 as a background control. At 48 hrs post transfection, transfected cells were assayed for their ability to bind soluble flag-hBAFF(amino acids L83-L285) as follows. All incubations were at room temperature. Conditioned media was aspirated from the wells and the cells washed with BHA buffer (20 mM HEPES pH7.0, 0.5mg/ml BSA, 0.1% NaN3) and incubated with 0.5 ug/ml FLAG-hBAFF diluted in PBS containing 1 mM MgCl2, 1 mM CaCl2 and 0.1% NaN3. After an 1 hr. incubation, the BAFF solution was removed and the cells were washed with BHA. The cells were next incubated for 30 min. in a PBS solution containing 1 ug/ml of the anti-FLAG monoclonal antibody, M2 (Sigma). This solution was aspirated and the cells were washed with BHA. […]

T1 sequence (Q9Y275 83-285 limits assumed): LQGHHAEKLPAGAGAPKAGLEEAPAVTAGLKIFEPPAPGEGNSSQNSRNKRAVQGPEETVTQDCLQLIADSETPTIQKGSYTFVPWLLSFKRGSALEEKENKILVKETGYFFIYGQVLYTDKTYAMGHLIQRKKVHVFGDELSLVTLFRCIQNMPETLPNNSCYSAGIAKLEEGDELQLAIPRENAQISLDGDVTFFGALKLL

binding result: binds
B1: full-length human BAFF-R (BCMA) expressed on 293EBNA cells transfected with pJST535 (receptor)
chain: MLQMAGQCSQNEYFDSLLHACIPCQLRCSSNTPPLTCQRYCNASVTNSVKGTNAILWTCLGLSLIISLAVFVLMFLLRKISSEPLKDEFKNTGSGLLGMANIDLEKSRTGDEIILPRGLEYTVEECTCEDCIKSKPKVDSDHCFPLPAMEEGATILVTTKTNDYCKSLPAALSATEIEKSISAR
